Test results from patent publication US20200087373A1 (UNIVERSITY OF COPENHAGEN, published 2020).
Ends that are not written are not given here. * marks the point of attachment. Stearoyl = CCCCCCCCCCCCCCCCCC(=O)*

Experiments:
[1] = target: T1, human GIP receptor (human, UniProt P48546 22-466); assay: cell-based or functional assay
T1 sequence (looked up): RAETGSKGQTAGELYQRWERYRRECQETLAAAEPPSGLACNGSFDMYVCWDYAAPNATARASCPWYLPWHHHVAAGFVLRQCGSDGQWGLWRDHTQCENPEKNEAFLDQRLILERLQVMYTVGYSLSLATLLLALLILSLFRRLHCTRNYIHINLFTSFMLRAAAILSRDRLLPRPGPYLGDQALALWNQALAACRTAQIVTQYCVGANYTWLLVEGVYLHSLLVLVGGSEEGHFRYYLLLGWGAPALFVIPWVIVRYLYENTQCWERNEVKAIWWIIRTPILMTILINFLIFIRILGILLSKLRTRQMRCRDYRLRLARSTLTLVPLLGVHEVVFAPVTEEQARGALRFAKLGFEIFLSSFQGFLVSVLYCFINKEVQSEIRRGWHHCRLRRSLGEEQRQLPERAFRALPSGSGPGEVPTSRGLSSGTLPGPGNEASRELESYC

[2] = target: human GIP receptor (human) (UniProt P48546); assay: 125I-hGIP competition binding, COS-7 cells expressing hGIPR

## EGTFISDYSIAMDK(Stearoyl)IRQQDFVNWLLAQR-NH2 (not fully specified) [AT162 [hGIP(3-30)NH2[H18R; K30R]-C18/16]]
[1]
  cAMP agonism, EC50 (log): -5.9 log M
  cAMP agonism, Emax: 44%
  cAMP agonism, nM (EC50): 1370 nM
[2]
  IC50: 85 nM
